The values below come from publication PMC6345753, “Curcumin inhibits the TGF-β1-dependent differentiation of lung fibroblasts via PPARγ-driven upregulation of cathepsins B and L”.

Common to all, as to settings: protein: recombinant;recombinant; tags: ;; copies: 1;1; blunt
The target of series [1] is T1, PPARγ;RXRα (human;human, UniProt P37231;P19793 1-505;1-462, |). The series can be described thus: EMSA; labeled mutant probe; 4 fmol labeled DNA, 3.7 pmol PPARγ, 3.9 pmol RXRα in 20 µl; 20 ng poly(dI.dC), 2.5% glycerol, 0.05% NP-40, 5 mM MgCl2; on ice 20 min; 4% native gel, 1x TBE, 4 °C; pH and salt not given. In general terms: A gel shift assay detects complexes by their altered migration in electrophoresis.

For series [2], the target named is T1, PPARγ;RXRα. The series can be described thus: EMSA; two shifted complexes; anti-PPARγ supershift; 4 fmol labeled DNA, 3.7 pmol PPARγ, 3.9 pmol RXRα in 20 µl; 20 ng poly(dI.dC), 2.5% glycerol, 0.05% NP-40, 5 mM MgCl2; on ice 20 min; 4% native gel, 1x TBE, 4 °C; pH and salt not given.
Series [3] deals with T1, PPARγ;RXRα. Kind of series: EMSA; positive control; anti-PPARγ supershift; 4 fmol labeled DNA, 3.7 pmol PPARγ, 3.9 pmol RXRα in 20 µl; 20 ng poly(dI.dC), 2.5% glycerol, 0.05% NP-40, 5 mM MgCl2; on ice 20 min; 4% native gel, 1x TBE, 4 °C; pH and salt not given.

B1: CAT L-PPREmt (dsDNA)
DNA 1: TTATGCGGTACCCGCTTCGGTAATTATT
DNA 2: AATAATTACCGAAGCGGGTACCGCATAA
Consider B1, for which, in the series with PPARγ;RXRα [1], the binding result was “no binding”.

B2: CAT B-PPREmt (dsDNA)
DNA 1: TCTCCTGATGTAGGATACTCCTGCCTCG
DNA 2: CGAGGCAGGAGTATCCTACATCAGGAGA
On to B2, for which the binding result with PPARγ;RXRα [1] was “no binding”.

B3: CAT L-PPRE (dsDNA)
DNA 1: TTATGGGGTAAAGGCAGAGGTAATTATT
DNA 2: AATAATTACCTCTGCCTTTACCCCATAA
On to B3, for which the binding result in the series with PPARγ;RXRα [2] was “binds”.

B4: CAT B-PPRE (dsDNA)
DNA 1: TCTCCTGACCTGTGATCCGCCCGCCTCG
DNA 2: CGAGGCGGGCGGATCACAGGTCAGGAGA
In the case of B4, in the series with PPARγ;RXRα [2], the binding result is recorded as “binds”.

B5: consensus PPRE (dsDNA)
DNA 1: CAAAACTAGGTCAAAGGTCA
DNA 2: TGACCTTTGACCTAGTTTTG
Regarding B5, the binding result with PPARγ;RXRα [3] is recorded as “binds”.
